Source: the supplement of paper PMC10567573

B1: CDC25B (parent)
chain: ELKTFRLKTRSWAGERSRRELCSR

Variants of: B1
Assay: protein stability index of a GFP-peptide fusion (GPS, HEK-293T) (PSI 1-6); higher = more stable
Details: c terminus: a fixed tail appended
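Also: lentivirally expressed fusions sorted by FACS into six bins by GFP to DsRed ratio, PSI derived from sequencing read proportions per bin multiplied by bin number.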

Protein stability index of substitutions, site by site:
K8: L 3.2; M 2.8; D 3.41; R 5.09; W 2.1; H 3.07; N 2.99; S 3.55; Y 2.71; T 3.65; F 2.28; P 2.77; A 2.88; V 2.68; Q 3.34; C 2.73; E 3.2; I 1.92; G 2.4
R6: A 2.78; G 3.34; P 3.75; S 3.33; C 2.14; D 3.17; L 2.04; I 2.06; E 1.84; M 2.14; V 2.32; F 1.75; Y 2.42; H 3.25; K 2.85; N 3.3; Q 3.75; W 1.89; T 3.39
R10: Y 3.19; F 2.54; N 3.13; G 2.44; H 3.04; S 3.5; W 2.41; Q 3.1; C 2.94; P 3.13; T 2.37; K 3.66; I 2.8; L 3.38; A 3.15; V 2.45; E 2.66; D 3.62; M 2.92
R19: N 3.38; P 2.98; L 3.2; Q 3.45; C 2.25; A 4.2; T 2.57; M 3; H 3.13; I 2.57; F 2.49; G 3.46; D 2.88; E 3.66; S 3.28; K 3.26
F5: Q 3.67; R 3.78; Y 3.94; P 4.43; I 3.59; C 3.09; V 3.96; M 3.6; S 3.94; E 2.5; D 4.08; H 3.92; A 4.09; G 3.69; K 4.24; L 3.65; W 2.87; N 3.63; T 3.82
R16: D 3.83; H 3.46; C 2.97; V 1.93; Y 3.61; A 3.64; M 2.97; W 2.55; Q 3.62; K 2.81; G 3.74; L 2.91; F 2.6; N 3.34; S 3.9; P 3.67; E 3.64; T 3.87; I 2.53
S11: L 2.61; M 2.42; T 3.1; E 3.11; R 2.4; C 2.63; N 3.2; P 2.59; W 2.57; H 1.95; D 2.95; I 2.71; F 2.58; K 2.64; Q 2.58; G 2.94; V 2.11; A 2.68
E15: K 3.3; V 2.51; G 2.68; Y 2.46; F 2.58; R 3.06; Q 3.06; P 3.2; A 3.04; C 2.44; W 2.4; S 2.96; M 2.67; N 2.66; H 3.02; T 2.98; I 2.75; L 2.78; D 3.36
T4: D 4.42; P 3.41; K 2.61; Y 3.27; E 3.16; H 3.27; F 2.79; G 2.9; V 3.27; N 2.09; R 2.52; A 3.47; C 2.56; S 3.6; Q 3.18; L 2.85; M 2.96; I 2.26
A13: N 3.81
